Reference: the NTF2 design screens of Basanta et al. (2020)

Test: protease stability score; higher = more stable; yeast display proteolysis, trypsin and chymotrypsin;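 further: relative to predicted unfolded state with 0 unfolded-like and 1 meaning tenfold more protease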

Row | Sequence | protease stability score
1 | DEIEKSVKHHDQVFRTAIETGDEHELEHLADPNVRWDINGVDLHGRELYLKIVLEIRMRIELRVRDVRWQGNYIIVISEVDSHHHINGVETRDRSDAHLIIFKVNGRWELKESRRH | 1.35
2 | DEIEKVLEISYRLMHESWRTGDEDHLRDLIDPHARVIIDGRTYHGRDAMHLFVDELLREFGITQVDIEMKRIHVQGDKVESHHDINFNGQRVEVDISFHKVNGRWIAESVTWR | 1.24
3 | DEIENLIVKLAMDFIKDEITGDEERLRHLADPHTRHHIGDKHFHGMELIMKHWKTMADRFDHLEVRLEHVRVQGDKVDVHGHIIEEYNGKRIEHHIRLNVEIVDGRVTRYHVKID | 1.32
4 | DEIEQIMEYLAHVHIEFIITGDEDTLEHLADPHVKIEVNGQSLVGWKHWSRFLKKLGWKRDMRVRHIHAQGDKIHVDGHLVNDFDGREFRYKTHLEIKVVDGKLKVIRIDQE | 1.41
5 | DEIEREAKHVVHLLIHALLTGDERLFEELVDPDARLVINGRHYHGREEVNLAMKEWRLHRFEIKDFQYEWQGNKIISRIHTREDGHVDGQRVETRSELVIFLVKINGRWRMEFVEFRFS | 2.42
6 | DEIERESRKFFELWVHWYRTGNFEEIHKNLDPNARIEINGREIHGREDVLRLLEEIAKQFDHIEVELKDMHVQGDKMTIEGIIIFHFNGKRVEIHMIHIVLKINGQWFEHSQEYN | 0.626
7 | DEIERKVIEFWHLLRHALITGDEDLIEDLFDPHVRTDIGDKEHHGREEFRRLWREHGIRIKDVHIEHVTIIGNKVDMEVRFHLEINGRETHKRVILVAQKIDGRWRIREYHVK | 1.88
8 | DEIERLFRELVNLIFELLRTGNFRKLEELLDPHTRLTIGDKYYHGRESVIEYLKHLWEQLGVDHMEFHVKRVDIQGEKVNADTEIRIKIGDKTYFRDTVLIFLKIDGRWEIRAWEEK | 1.52
9 | DEIERLLKEVMRIFYENFQTGDEESLKELADPNVRYQIGDKSDHGREHLWRVQHEVHRRMGIKHTHLLIKSVEIVDGVAVIHGSLRLDFDGRHIEWHLHLRLKLIDGKIKEVEHELV | 1.36
10 | DEIERRAREFFELWMQTVRTGDEHASSELLDPHVRIEQGDKSFHGRETYNEILHHLHRHMWFEIYLDSIEIQGDKIHARVNFVYIIGDKESWIDVHIHIDVINGRMKRLEIRDH | 0.511
11 | DEIHEDFDRFLEEYLESLRTGDWKKVEELHDPNTRVDIGDKHVIGMDLLAHLETKDFIKRGARVDMHVRRFEIQGNKIIIHGELRIHYGDKHVRINIHLDIRKINGKWIIRHEEIR | 1.13
12 | DEIHEKVQLAAEIFEEIVRTGDEELFMRYMDPHVRLIDENEIYHGMDIWHKWLHERHEKLGAKHEEVKTRSLDLQGEKLRVEGDFVVNVNGRTFHHRLHLIYRKIDGQWRYEQISLE | 0.853
13 | DEIHKDAHRFVELLLRLLRTGDEDSIEKLMDPHAKININGQERIGREETIELALHWRNDDHHIHDMITINGRVDVHGRVKGEFDGRHQEFTFRLIVLKVNGRWVNESHHYI | 0.83
14 | DEIHKDAKEFTKRFIDSLHTGDWKELLEMFDPHTRIVVGDKEFIGMDEILRFERELGIEKVDYHLKHVEIRVQGEKADIHITGEIRFNGQTVDRELNIHARKIDGRWKVDEVNLDRR | 1.88
15 | DEIHQFIEHMTKLLITALYTGDERMLEELADPHVKLDIGDKHSVGRENFVEMMKWLADHIRVRHTDIHDLKIYGEKTRVDMRVDGEVDGQRVEYRVEIFLFVVDGRLKRSSVHFK | 1.09
16 | DEIKDHVEHASRLLLETYETGDEHTLERLVDPHVKLEVNGQEHVGRETTRWMLEFFKNLKIRIEDVRWQGNKIEIHSILHFNGKDLEMIYFAEKVDGRWVIRSVRTT | 1.38
17 | DEIKESAEEAQRTWVHNSLTGNEEELSRNADPDVRVIIYVNGREIRLIGREFLEELMHRVKNLTIEVDEIRFQGDKIRFNERWTVNGVPRHVDLVMHKFNGKWHIHSINIHVV | 1.15
18 | DEIKKVALKMADLIFELYLTGNEELLRKLADPHMKLIIDGREFHGMHVSHEWILRELKEIRIEDWKIKDVHLQGNKVHIDLRVHGVVDGQREERDVKIHIIVINGRIHSMEMHKE | 2
19 | DEIKRHFDEFIKVLREIIRTGDEEDLVRLMDPNVKLEVGDKRFHGMEVLDVLHKRADHLHEFDIHDWNIQGDKARVDLRLVGQFNGRTVIDNTTLWYEKIDGKWFIKSMRIH | 1.18
20 | DEIKTELEKWLREFIRDMRTGDEDTLRQQADPNMRLDVNGQEIIGWDRILREEIRLRHDLGLTQIHVTVKDHRIQGEKIHNRGEIIYGEFRLDTILIVKKVDGRWRATDMVVV | 1.17
